This assay deals with T1, SARS-CoV-2 RBD, His-tagged, for antibody binding studies (SARS-CoV-2, UniProt P0DTC2).
T1 construct: source: HEK293F, transient, purified from supernatant (Ni-NTA agarose)
Description: BLI. The settings on record: both partners purified.

Experimental findings from publication PMC7687367 (Immunity, 2020) are described below.

B1: COVA1-16 VH R100bS mutant (antibody, V domains shown)
VH: QVQLVQSGAEVKKPGASVKVSCKASGYTFTSYYMHWVRQAPGQGLEWMGIINSSGGSTSYAQKFQGRVTMTRDTSTSTVYMELSSLRSEDTAVYYCARPPRNYYDSSGYYQRAEYFQHWGQGTLVTVSS
VL: DIQLTQSPSSLSASVGDRVTITCQASQDISNYLNWYQQRPGKAPKLLIYDASNLETGVPSRFSGSGSGTDFTFTISSLQPEDIATYYCQQYDNPPLTFGGGTKLEIK
For B1, the binding result is reported as “binds”.
